The values below come from article PMC7861488.

What all share (experiment): graphene FET
The target in data set [1] is T1, TNF-alpha (UniProt P01375 77-233).
In data set [2] the target is T1, TNF-alpha. The source holds these as a separate data set.
The target in data set [3] is T1, TNF-alpha. The source holds these as a separate data set.
Data set [4] addresses T1, TNF-alpha. The source holds these as a separate data set.
The target in data set [5] is T1, TNF-alpha. The source holds these as a separate data set.
The target of data set [6] is T1, TNF-alpha. This is another data set of the same source.
Data set [7] has as its target T1, TNF-alpha. This is another data set of the same source.
Data set [8] deals with T1, TNF-alpha. The source holds these as a separate data set.
In data set [9] the target is T1, TNF-alpha. The source holds these as a separate data set.

Read-outs that look alike come from different tables or passages of the source.

T1 sequence (P01375 77-233): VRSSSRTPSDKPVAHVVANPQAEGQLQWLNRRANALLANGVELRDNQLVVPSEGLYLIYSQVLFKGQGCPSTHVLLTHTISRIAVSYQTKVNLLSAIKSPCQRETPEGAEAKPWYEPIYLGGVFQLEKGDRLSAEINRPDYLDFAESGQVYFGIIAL

Broadly, the Kd is a measure of binding affinity in units of concentration. As for TGGTGGATGGCGCAGTCGGCGACAA (ssDNA, 5'-NH2 (coupled to PASE on graphene)) [VR11], the Kd with TNF-alpha [1] is 15.1 nM; with TNF-alpha [2] it was 14.7 nM; in the data set with TNF-alpha [3], 14.2 nM; with TNF-alpha [4], 15.6 nM; with TNF-alpha [5], 15 nM; with TNF-alpha [6] it was 14.2 nM. The Kd turned out to be 14.3 nM with TNF-alpha [7], 15.1 nM with TNF-alpha [8] and 15.5 nM in the data set with TNF-alpha [9].
